Laboratory results taken from article PMC7466704, “A Peptide-Based Nanocarrier for an Enhanced Delivery and Targeting of Flurbiprofen into the Brain for the Treatment of Alzheimer’s Disease: An In Vitro Study” (Nanomaterials, 2020).
Values joined by “and” are separate entries in the source; they are usually repeats but may differ in a detail not shown here. Equal entries are not always repeated. Blank lines part the entries; values can stand above or below the molecule they belong to. Where a SMILES comes first, the peptide text is derived from it. The star is where a group is joined. X1 = CC(C(=O)*)c1ccc(-c2ccccc2)c(F)c1

Experiments:
[1] = system: bEnd.3 cells; assay: LDH release assay (loss of cell membrane integrity); type: cell-based, mouse; conditions: 25 to 400 µM, 24 and 48 h, absorbance 492 nm, n = 6
Procedure: Immortalised brain endothelial cells, bEnd.3 (passages 15–20), were cultured, according to the (manufacture ATCC) product sheet, in a Dulbecco’s modified eagle’s medium (DMEM) high glucose medium with L-pyruvate, containing 10% (v/v) foetal bovine serum (FBS) and 1% (v/v) of 500 U/mL Penicillin/Streptomycin (Gibco, Gaithersburg, MD, USA). Cells were seeded at a density of 5 × 10^4 cells per cm^2 in 24-well plates, which were incubated at 37 °C and 5% CO2 with replacement of the culture media every 3 days.
(§1) The lactate dehydrogenase (LDH) assay provides an indication of loss of cell membrane integrity and was measured using a Promega CytoTox96® nonradioactive cytotoxicity assay kit (Southampton, UK) after 24 and 48 h of treatment. Absorption was read spectrophotometrically at 492 nm and converted to a percentage of the total LDH released from the positive control (untreated cells with complete lysis).

[2] = system: HUVEC; assay: as above; type: cell-based, human; conditions: 25 to 400 µM, 24 and 48 h, absorbance 492 nm, n = 6
Procedure: The synthesised AEP-K-FP was also tested on human umbilical vein endothelial cells (HUVECs) (ATCC- Manassas, VA, USA) (passages 35 to 39). HUVECs were routinely cultured in an endothelial basal medium (F-12K) containing 0.05 mg/mL of endothelial cell growth supplement (ECGS), 0.1 mg/mL of heparin (Gibco Gaithersburg, MD, USA) and adjusted to a final concentration of 10% v/v of FBS (according to the manufacturer’s recommendations).
as §1

[3] = system: brain endothelial cells (bEnd.3); assay: Hoechst 33342/propidium iodide (HPI) staining, cell death assessment; type: cell-based, mouse; conditions: 100, 300 and 400 µM, 24 h, n = 6
Source text: For cell death assessment, Hoechst 33342 and propidium iodide (PI) salt (HPI) was used (Sigma-Aldrich, Gillingham, UK). These intracellular dyes stain cells in which the Hoechst 33342 binds to DNA, so it is staining the nuclei, whereas PI stains […], resulting in emission of light observed under a fluorescent microscopy. Live cells appear blue with intact membranes on microscopic examination, and those at early and late apoptotic phases appear bright blue with shrinkage. On the other hand, necrotic or damaged cells appear red with ruptured membranes.
HPI dye was prepared by adding 900 µL of DMEM to a mixture solution of 50 µL of 1mg/mL Hoechst 33342 and 50 µL of 2 μg/mL PI in a glass vial. After 24 h of treatment and incubation, which were performed as previously discussed, an epi fluorescent microscopy (Olympus microscope equipped with a Nikon D1X camera, UK) was used to identify and count the cells with distinct morphologies. Cell counts for healthy (living), apoptotic, or necrotic cells were obtained from the same treatment in duplicate wells and from three different fields for each well. Counting of the cells was measured according to their appearance then averaged and expressed as a percent of the total cell number.

[4] = system: bEnd.3 monolayer; assay: Penetration across in vitro BBB model (bEnd.3 monolayer on transwell); type: in vitro ADME, mouse; conditions: for Increase of percentage permeated relative to free FP: 200 µM; for Percentage permeated across in vitro BBB model (% of applied concentration): bEnd.3 monolayer on 12-transwell inserts, 200 µM in FBS-free, phenol-free culture media, HPLC C18, UV 248 nm
Procedure: The lyophilised powders of both AEP-K-FP and the free drug (FP) were dissolved in the FBS-free, phenol-free culture media in a concentration of 200 µM. Quantitative analysis of penetration for the free-drug and drug-attached delivery system was undertaken using HPLC (Agilent technology, Stockport, UK). The analysis was carried out using a hydrophobic C18 column (150 × 4.6 mm) at 25 °C and 20 μL of injection volume. The flow rate used was 0.6 mL/min, while the UV-detection wavelength was 248 nm, which is the λmax of FP [9]. The HPLC mobile phase solvents consisted of water/acetonitrile in which the gradient of eluent was run from 75:25 to 25:75 water: acetonitrile over 20 min. The standard curve for each molecule was obtained to calculate the percentage of the amount that transported across the in vitro BBB model.
To establish an in vitro BBB model, bEnd.3 cells were seeded on microporous membrane of 12-transwell inserts with complete culture media in a routine manner. Trans-endothelial electrical resistance (TEER) between apical and basolateral chambers was measured using an Evom voltometer (Sarasota, FL, USA) to determine the day of maximum values indicating tight junction formation, as previously described.

[5] = system: γ-secretase in C6 glial cells; assay: Quantification of γ-secretase enzyme by sandwich ELISA in treated cells; type: cell-based; conditions: 200 µM in F-12K, 4 h, cell lysate supernatant, 6 readings, untreated control 28.43 ± 8.32
Procedure: C6 glial cells (ATCC-) (passages less than 20) were seeded using the complete growth medium, which was made according to the ATCC product sheet by addition of FBS to a final concentration of 2.5% v/v and horse serum (Gibco Gaithersburg, MD, USA) to a final concentration of 15% v/v to F-12K medium. Experiments were performed when cells reached confluence.
The investigation is based on sandwich enzyme-linked immunosorbent assay (ELISA) technology using a γ-secretase enzyme kit (Abbexa Ltd., Cambridge, UK). After confluence, C6 glial cells were treated with 200 µM FP or AEP-K-FP / F-12K solution. Wells containing untreated C6 cells were also included as a control. After 4 h of incubation, cells were washed and lysed to be centrifuged, and the supernatant was collected for assaying the γ-secretase activity immediately, according to kit instructions. Data were expressed as pg/mL, following kit instructions.

[6] = Hydrolysis and drug release in acidic lysosome-mimicking buffer; type: physicochemical; conditions: phthalate buffer pH 4.5; 200 µM; static, 24 h, 37 °C; HPLC
Procedure: The AEP-K-FP was analysed for the hydrolysis of the amide linkage that coupled the drug molecules to the peptide carrier as well as its amino acids residues. This hydrolysis of the complex was evaluated in an acidic solution mimicking the lysosomal pH conditions that are likely to be found in an inflamed tissue such as that of AD-affected brain tissue. The acidic buffer solution was prepared using a phthalate solution, according to manufacturer’s instructions (Thomas Scientific, Swedesboro, NJ, USA), to obtain a final pH of 4.5. The AEP-K-FP was dissolved in this buffer solution at a concentration of 200 µM and incubated at static conditions for 24 h, 37 °C. Samples were collected and analysed by HPLC.

[7] = parameters: method as in PMID 7736686; conditions: cited from earlier work
[8] = system: γ-secretase; parameters: method as in PMID 20009055, PMID 18450517; conditions: at target brain tissue; cited from earlier work

SMILES: CC(C)C[C@H](NC(=O)[C@H](CC(C)C)NC(=O)[C@H](CCCNC(=N)N)NC(=O)[C@H](CCCCN)NC(=O)[C@H](CCCNC(=N)N)NC(=O)[C@H](CC(C)C)NC(=O)[C@H](CCCCN)NC(=O)[C@H](CCCNC(=N)N)NC(=O)[C@H](CC(C)C)NC(=O)[C@H](CCCCNC(=O)C(C)c1ccc(-c2ccccc2)c(F)c1)NC(=O)C(C)c1ccc(-c2ccccc2)c(F)c1)C(=O)N[C@@H](CCCNC(=N)N)C(=O)O (stereo partly drawn) [AEP-K-FP] (X1-K(X1)LRKLRKRLLR-OH; N-terminus and C-terminus assumed)
- LDH release, % of positive control (complete lysis) [1]: less than 50%
- LDH release, % of positive control (complete lysis) [2]: less than 50%
- Apoptotic cells, % of total cell number (HPI staining) [3]: ≤ 4.7%
- Healthy cells, % of total cell number (HPI staining) [3]: ≥ 91%
- Necrotic cells, % of total cell number (HPI staining) [3]: ≤ 3.4%
- Increase of percentage permeated relative to free FP ([4]; bEnd.3 BBB model, 1 h): more than 6 times
- Increase of percentage permeated relative to free FP ([4]; bEnd.3 BBB model, 4 h): 4 times
- Percentage permeated across in vitro BBB model (% of applied concentration) ([4]; 1 h): 16.3%
- Percentage permeated across in vitro BBB model (% of applied concentration) ([4]; 4 h): 35.9%
- γ-secretase enzyme amount, Mean ± SD [5]: 14.6 pg/mL and 14.60 ± 3.51 pg/mL
- Percentage of hydrolysed FP out of the total amount of AEP-K-FP [6]: 69.2%

- Penetration, % of initial payload concentration ([4]; bEnd.3 BBB model, time not stated at this place (discussion)): less than 9%
- Percentage permeated across in vitro BBB model (% of applied concentration) ([4]; 1 h): ≤ 2.7%
- Percentage permeated across in vitro BBB model (% of applied concentration) ([4]; 4 h): ≤ 8.5%
SMILES: CC(C(=O)O)c1ccc(-c2ccccc2)c(F)c1 (stereo not drawn) [FP, Flurbiprofen]
- γ-secretase enzyme amount, Mean ± SD [5]: 8.2 pg/mL and 8.20 ± 3.80 pg/mL
- Biological half-life [7]: 4 h
- Time to full excretion from the body [7]: ≤ 24 h
- Required therapeutic concentration for significant pharmacological effect on γ-secretase activity [8]: 150−250 μM
